From PMC5269746

What was measured:
[1] = tested on: GNH nanocarrier (GP41 endosome release motif, DNA condensing motif, NLS) (synthetic construct); assay: EMSA (agarose gel retardation); conditions: not given in the material (gel retardation methods text absent); ethidium bromide staining
[2] = tested on: HNH nanocarrier (H5WYG endosome release motif, DNA condensing motif, NLS) (synthetic construct); assay: EMSA (agarose gel retardation); conditions: not given in the material (gel retardation methods text absent); ethidium bromide staining

Substance: pGL3 plasmid
- binding (N/P ratio for complete retardation) [1]: 1
- binding (N/P ratio for complete retardation) [2]: 1
